Assay results reported in US20260274986A1, “USE OF CHIMERA IN TARGETED PROTEIN DEGRADATION TECHNOLOGY” (SUN YAT-SEN UNIVERSITY, priority 2023, published 2026).

Assays:
EGFR = target: T1, EGFR (Homo sapiens, UniProt P00533); experiment: Chimera-induced degradation of EGFR, Western blot; assay type: cell-based; settings: 48 hours
T1 construct: two EGFR-high-expressing cell lines-A431, and A549-were selected for the experiment; endogenous in cells; host or cells: A431, A549
Description: In this Example, two EGFR-high-expressing cell lines-A431, and A549-were selected for the experiment. The cells were plated one day before the administration of chimeras. […] Subsequently, the cells were lysed using a lysis buffer, total proteins were extracted, and protein concentration was quantified using a BCA protein assay kit (Thermo Fisher). Proteins were separated by 10% SDS-PAGE and transferred onto polyvinylidene fluoride (PVDF) membranes via electroblotting. The membranes were blocked with 5% skim milk at room temperature for 1 hour. After removing the milk, the membranes were incubated with a primary antibody overnight at 4° C. on a shaker. The next day, the membranes were quickly immersed in TBST and washed three times, followed by incubation with a secondary antibody at room temperature for 1 hour. Finally, the proteins were detected and recorded using a chemiluminescence reagent and a Tanon chemiluminescence imaging system, and quantitative analysis was performed on the proteins using ImageJ. All primary antibodies used in this Example were an anti-EGFR antibody.

CDK5 = target: T2, CDK5 (Homo sapiens, UniProt Q00535); experiment: Chimera-induced degradation of intracellular target CDK5, Western blot; assay type: cell-based; settings: T24 cells; 48 hours; compared to PEP2 and P1
T2 construct: a CDK5-high-expressing cell line—T24 human bladder cancer cells—was selected for the experiment; endogenous in cells; host or cells: T24
T2 sequence (Q00535 whole entry): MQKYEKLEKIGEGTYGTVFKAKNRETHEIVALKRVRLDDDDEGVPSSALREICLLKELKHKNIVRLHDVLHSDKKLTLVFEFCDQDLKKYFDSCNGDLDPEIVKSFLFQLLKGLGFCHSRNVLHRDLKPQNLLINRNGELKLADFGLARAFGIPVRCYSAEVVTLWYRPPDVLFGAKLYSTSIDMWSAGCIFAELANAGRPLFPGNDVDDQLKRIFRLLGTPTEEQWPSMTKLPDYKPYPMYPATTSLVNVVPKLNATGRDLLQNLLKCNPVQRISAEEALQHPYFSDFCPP
Description: In this Example, a CDK5-high-expressing cell line—T24 human bladder cancer cells—was selected for the experiment. The cells were plated one day before the administration of chimeras. Each of PEP2, P1 and PEP-C4-P1 was diluted in complete medium and incubated with the cells for 48 hours. Subsequently, the cells were lysed using a lysis buffer, total proteins were extracted, and protein concentration was quantified using a BCA protein assay kit (Thermo Fisher). Proteins were separated by 10% SDS-PAGE and transferred onto polyvinylidene fluoride (PVDF) membranes via electroblotting. The membranes carrying the proteins were blocked with 5% skim milk at room temperature for 1 hour. After removing the milk, the membranes were incubated with a primary antibody overnight at 4° C. on a shaker. The next day, the membranes were quickly immersed in TBST and washed three times, followed by incubation with a secondary antibody at room temperature for 1 hour. Finally, the proteins were detected and recorded using a chemiluminescence reagent and a Tanon chemiluminescence imaging system, and quantitative analysis was performed on the proteins using ImageJ. All primary antibodies used in this Example were an anti-CDK5 antibody.

| degradation of CDK5 (Western blot, FIG. 15) (CDK5) | Substance | degradation of EGFR (Western blot, FIG. 6C) (EGFR; A431 cells) | degradation of EGFR (Western blot, FIG. 6C) (EGFR; A549 cells) |
| --- | --- | --- | --- |
| – | PEP1-C3-P1: EGFR-binding polypeptide PEP1 (LARLLT) fused at C-terminus to C3-P1, SEQ ID NO: 135 (LARLLTRRRRKSFHDDSDEDLLHI) | obvious degradation effect on the membrane receptor EGFR | obvious degradation effect on the membrane receptor EGFR |
| – | PEP1-P1: EGFR-binding polypeptide PEP1 (LARLLT) fused at C-terminus to P1, SEQ ID NO: 134 (LARLLTSFHDDSDEDLLHI) | obvious degradation effect on the membrane receptor EGFR | obvious degradation effect on the membrane receptor EGFR |
| obvious degradation effect on CDK5 | PEP2-C4-P1: CDK5-binding polypeptide PEP2 (RRPPRSPDHKRYFRDKE) fused at C-terminus to C4-P1, SEQ ID NO: 136 (RRPPRSPDHKRYFRDKEYGRKKRRQRRRSFHDDSDEDLLHI) | – | – |
